This note sets out measurements from PMC4203850, “Conformational Antibody Binding to a Native, Cell-Free Expressed GPCR in Block Copolymer Membranes” (PLoS ONE, 2014).

By Kd is commonly meant the concentration at which binding is half-saturated. A higher Kd goes with weaker binding.

The target of this assay is T1, radiolabeled (I-125) SDF-1α (stromal cell-derived factor-1 alpha) (UniProt P48061-2 22-89, 125I radiolabel (position not given)).
T1 construct: SDF-1α (stromal cell-derived factor-1 alpha), the natural ligand of CXCR4; the alpha isoform
In words: radioligand binding; saturation assay: constant CXCR4-ACM concentration, varying 125I-SDF, with and without 0.5 µM unlabeled SDF; 96-well plate, filtration; GraphPad Prism. The following applies: both partners purified.

T1 sequence (P48061 22-89): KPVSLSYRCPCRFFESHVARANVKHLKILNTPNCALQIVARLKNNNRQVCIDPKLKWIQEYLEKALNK

B1: CXCR4 embedded in polymersome membranes (CXCR4-ACMs) (receptor, UniProt P61073 1-352, looked up)
chain: MEGISIYTSDNYTEEMGSGDYDSMKEPCFREENANFNKIFLPTIYSIIFLTGIVGNGLVILVMGYQKKLRSMTDKYRLHLSVADLLFVITLPFWAVDAVANWYFGNFLCKAVHVIYTVNLYSSVLILAFISLDRYLAIVHATNSQRPRKLLAEKVVYVGVWIPALLLTIPDFIFANVSEADDRYICDRFYPNDLWVVVFQFQHIMVGLILPGIVILSCYCIIISKLSHSKGHQKRKALKTTVILILAFFACWLPYYIGISIDSFILLEIIKQGCEFENTVHKWISITEALAFFHCCLNPILYAFLGAKFKTSAQHALTSVSRGSSLKILSKGKRGGHSSVSTESESSSFHSS
notes: Receptor sits in polybutadiene-b-poly(ethylene oxide) polymersome membrane with 1% DSPE-PEG-biotin; The introduction speaks in general of 'native, full-length membrane proteins' for this approach; also called C4-ACMs; native CXCR4
The molecule B1 registered a Kd of 8.4 nM.
